{"source": "paper PMC3429349", "about": "(Science (New York, N.Y.), 2009)", "biological_target": "the molecule itself", "data": [{"protein": "HSF1 K80Q (natural protein, human, UniProt Q00613 1-529, looked up) MDLPVGPGAAGPSNVPAFLTKLWTLVSDPDTDALICWSPSGNSFHVFDQGQFAKEVLPKYFKHNNMASFVRQLNMYGFRQVVHIEQGGLVKPERDDTEFQHPCFLRGQEQLLENIKRKVTSVSTLKSEDIKIRQDSVTKLLTDVQLMKGKQECMDSKLLAMKHENEALWREVASLRQKHAQQQKVVNKLIQFLISLVQSNRILGVKRKIPLMLNDSGSAHSMPKYSRQFSLEHVHGSGPYSAPSPAYSSSSLYAPDAVASSGPIISDITELAPASPMASPGGSIDERPLSSSPLVRVKEEPPSPPQSPRVEEASPGRPSSVDTLLSPTALIDSILRESEPAPASVTALTDARGHTDTEGRPPSPPPTSTPEKCLSVACLDKNELSDHLDAMDSNLDNLQTMLSSHGFSVDTSALLDLFSPSVTVPDMSLPDLDSSLASIQELLSPQEPPRPPEAENSSPDSGKQLVHYTAQPLFLLDPGSVDTGSNDLPVLFELGEGSYFSEGDGFAEDPTISLLTGSEPPKAKDPTVS", "values": [{"measurement": "stoichiometry N", "result": 3}]}]}
